± gives the standard deviation of the averaged measurements.
The sequences below were run on ATP (assay: switch fluorescence ratio, 500 uM ATP over buffer (Cy3 cluster intensity, sum of 5 cycles each) (fold (ratio)); higher = stronger signal-on switching upon ATP binding; sequences stand for … in TCGTCGGCAGCGTCAGATGTGTATAAGAGACAGTTTTTTTTTTTTTTTTTTTTTTTTT…TC). Details: aptamer strand: ATP DNA aptamer (quencher-CACCTGGGGGAGTATTGCGGAGGAAGG + anchor), 100 nM annealed; ATP concentration: 500 uM.
Method in brief: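 Switching-strand clusters labelled with Cy3 on a modified Illumina MiSeq flow-cell were annealed to 100 nM quencher-labelled ATP aptamer, imaged in selection buffer, and re-imaged after 15 min with 500 uM ATP at 22 °C. This was done over five cycles with NaOH stripping and re-annealing in between. The fluorescence ratio is summed target-cycle over summed buffer-cycle Cy3 intensity per cluster, averaged per switch-domain sequence, excluding clusters outside 100-1000 RFU.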
For TAGCGATTAG, the switch fluorescence ratio was 1.01 ± 0.036. In the case of TAGCGGTTCG, the switch fluorescence ratio is reported as 1.01 ± 0.034. With TAGCGGTTTC the switch fluorescence ratio was 0.9746 ± 0.005. TAGCGTGTTG gave a switch fluorescence ratio of 1.02 ± 0.031. Sequence TAGCTCCGAC has a switch fluorescence ratio of 1.399 ± 0.0031. Sequence TAGCTGAGGA has a switch fluorescence ratio of 1.01 ± 0.032. Work on TAGCTGCATG yielded a switch fluorescence ratio of 1.01 ± 0.017. In the case of TAGGAACGAG, the switch fluorescence ratio is reported as 1 ± 0.024. Sequence TAGGAAGGTA has a switch fluorescence ratio of 1.01 ± 0.018. TAGGAATTTT showed a switch fluorescence ratio of 0.984 ± 0.016. TAGGACGAGG was tested, and the switch fluorescence ratio was 1.02 ± 0.021. In the case of TAGGAGAAGG, the switch fluorescence ratio is reported as 1.04 ± 0.036. Work on TAGGAGAGTT yielded a switch fluorescence ratio of 0.994 ± 0.036. In the case of TAGGAGATTT, the switch fluorescence ratio is reported as 0.998 ± 0.03. Sequence TAGGAGGGGG has a switch fluorescence ratio of 0.995 ± 0.04. With TAGGATATGG the switch fluorescence ratio was 1 ± 0.017. For TAGGATCTGG, the switch fluorescence ratio was 0.995 ± 0.027. With TAGGATGGTG the switch fluorescence ratio was 1.03 ± 0.11. TAGGATGTCA was tested, and the switch fluorescence ratio was 1.01 ± 0.027. TAGGATTCGA showed a switch fluorescence ratio of 0.964 ± 0.016. TAGGCACGCG was tested, and the switch fluorescence ratio was 1.027 ± 0.01. With TAGGCGGGGT the switch fluorescence ratio was 0.977 ± 0.05. With TAGGCGTTGG the switch fluorescence ratio was 0.972 ± 0.033. Work on TAGGCTGGGT yielded a switch fluorescence ratio of 0.992 ± 0.014. TAGGGAAAGT was tested, and the switch fluorescence ratio was 0.9607 ± 0.0022. TAGGGAACGC was tested, and the switch fluorescence ratio was 1.02 ± 0.011. Work on TAGGGAAGGT yielded a switch fluorescence ratio of 1.01 ± 0.034. TAGGGAGAGG showed a switch fluorescence ratio of 0.9871 ± 0.0049. With TAGGGAGGCA the switch fluorescence ratio was 1.01 ± 0.028. For TAGGGAGGGG, the switch fluorescence ratio was 0.973 ± 0.028. TAGGGATAG gave a switch fluorescence ratio of 1.01 ± 0.015. Work on TAGGGATTCC yielded a switch fluorescence ratio of 1.014 ± 0.0079. TAGGGCAGTA was tested, and the switch fluorescence ratio was 0.99 ± 0.046. In the case of TAGGGCATAT, the switch fluorescence ratio is reported as 1.1 ± 0.073. In the case of TAGGGCCTTT, the switch fluorescence ratio is reported as 0.986 ± 0.023. TAGGGCGTGC showed a switch fluorescence ratio of 0.9973 ± 0.0061. In the case of TAGGGCGTTC, the switch fluorescence ratio is reported as 1.02 ± 0.079. TAGGGGAACG showed a switch fluorescence ratio of 0.959 ± 0.0096. TAGGGGACAG gave a switch fluorescence ratio of 1.03 ± 0.058. TAGGGGAGTA showed a switch fluorescence ratio of 0.9792 ± 0.0068. TAGGGGAGTT gave a switch fluorescence ratio of 0.978 ± 0.04. With TAGGGGATAC the switch fluorescence ratio was 1.06 ± 0.01. In the case of TAGGGGATTT, the switch fluorescence ratio is reported as 1 ± 0.042. TAGGGGCTTG was tested, and the switch fluorescence ratio was 1.014 ± 0.0011. TAGGGGGAGA gave a switch fluorescence ratio of 1.06 ± 0.043. TAGGGGGCGC showed a switch fluorescence ratio of 1.02 ± 0.039. TAGGGGTCGT was tested, and the switch fluorescence ratio was 1 ± 0.02. In the case of TAGGGGTTCA, the switch fluorescence ratio is reported as 1.013 ± 0.002. In the case of TAGGGTAGTG, the switch fluorescence ratio is reported as 1.01 ± 0.021. TAGGGTATTT showed a switch fluorescence ratio of 0.987 ± 0.023. Sequence TAGGGTCATA has a switch fluorescence ratio of 1.04 ± 0.077. TAGGGTCTGG was tested, and the switch fluorescence ratio was 0.991 ± 0.04. TAGGGTGAGC gave a switch fluorescence ratio of 1.02 ± 0.019. In the case of TAGGGTGTGC, the switch fluorescence ratio is reported as 1 ± 0.037. Sequence TAGGGTGTTT has a switch fluorescence ratio of 0.993 ± 0.034. Sequence TAGGGTTCAG has a switch fluorescence ratio of 0.993 ± 0.029. In the case of TAGGGTTGTA, the switch fluorescence ratio is reported as 0.991 ± 0.04. For TAGGTAATAT, the switch fluorescence ratio was 1.02 ± 0.036. TAGGTATTGA gave a switch fluorescence ratio of 0.987 ± 0.024. For TAGGTCCTTT, the switch fluorescence ratio was 1.02 ± 0.02. TAGGTCGCCG gave a switch fluorescence ratio of 1 ± 0.044. In the case of TAGGTGACGG, the switch fluorescence ratio is reported as 0.991 ± 0.021. TAGGTGCCTG showed a switch fluorescence ratio of 1.07 ± 0.03. For TAGGTGCTGG, the switch fluorescence ratio was 1.04 ± 0.07. Sequence TAGGTGGGGA has a switch fluorescence ratio of 1.01 ± 0.023. Work on TAGGTGGGTT yielded a switch fluorescence ratio of 0.982 ± 0.041. With TAGGTTAAAG the switch fluorescence ratio was 1.01 ± 0.027. For TAGGTTATGC, the switch fluorescence ratio was 0.974 ± 0.036. TAGGTTGTCA showed a switch fluorescence ratio of 1.04 ± 0.024. TAGGTTGTCG showed a switch fluorescence ratio of 0.973 ± 0.077. With TAGGTTTCAT the switch fluorescence ratio was 1.01 ± 0.014. Sequence TAGGTTTTGG has a switch fluorescence ratio of 0.989 ± 0.035. TAGGTTTTTC gave a switch fluorescence ratio of 1.02 ± 0.078. TAGTAAATAT gave a switch fluorescence ratio of 1.006 ± 0.0041. In the case of TAGTAAGAGG, the switch fluorescence ratio is reported as 1 ± 0.013. TAGTAGAAAG showed a switch fluorescence ratio of 1.002 ± 0.0032. TAGTAGACGA was tested, and the switch fluorescence ratio was 0.982 ± 0.034. TAGTAGCTTT gave a switch fluorescence ratio of 1.2 ± 0.31. With TAGTAGGAGG the switch fluorescence ratio was 0.9721 ± 0.0061. TAGTAGGCGC was tested, and the switch fluorescence ratio was 0.968 ± 0.035. TAGTAGTGGG was tested, and the switch fluorescence ratio was 1.01 ± 0.022. TAGTAGTTGT gave a switch fluorescence ratio of 1 ± 0.013. Work on TAGTATAGGC yielded a switch fluorescence ratio of 1.14 ± 0.17. For TAGTATAGTT, the switch fluorescence ratio was 0.98 ± 0.016. TAGTATTTAG gave a switch fluorescence ratio of 1.024 ± 0.00096. With TAGTCATTAC the switch fluorescence ratio was 1.12 ± 0.12. Sequence TAGTCCGGGC has a switch fluorescence ratio of 1 ± 0.076. TAGTCTATTT was tested, and the switch fluorescence ratio was 0.977 ± 0.02. Work on TAGTCTGTGG yielded a switch fluorescence ratio of 0.993 ± 0.033. TAGTGAAAGT showed a switch fluorescence ratio of 1.007 ± 0.0071. For TAGTGAGAGC, the switch fluorescence ratio was 1 ± 0.058. TAGTGAGGCT gave a switch fluorescence ratio of 0.996 ± 0.01. TAGTGAGGGG showed a switch fluorescence ratio of 0.979 ± 0.031. TAGTGATTAA showed a switch fluorescence ratio of 1.02 ± 0.044. Sequence TAGTGATTGG has a switch fluorescence ratio of 1 ± 0.052. Work on TAGTGCCAGA yielded a switch fluorescence ratio of 1.01 ± 0.012. TAGTGCGATT showed a switch fluorescence ratio of 1.02 ± 0.015. For TAGTGCTTTT, the switch fluorescence ratio was 1.01 ± 0.025. Work on TAGTGGTTTT yielded a switch fluorescence ratio of 0.975 ± 0.02. TAGTGTGGGA gave a switch fluorescence ratio of 1 ± 0.043. Sequence TAGTGTGTAT has a switch fluorescence ratio of 0.9516 ± 0.0088. TAGTGTGTGA was tested, and the switch fluorescence ratio was 1.02 ± 0.014. Sequence TAGTTACACA has a switch fluorescence ratio of 1.04 ± 0.035. For TAGTTAGAAG, the switch fluorescence ratio was 1.08 ± 0.13. Sequence TAGTTCACGG has a switch fluorescence ratio of 0.9991 ± 0.0073. In the case of TAGTTCGACT, the switch fluorescence ratio is reported as 1.004 ± 0.0091. In the case of TAGTTCGTAT, the switch fluorescence ratio is reported as 0.986 ± 0.0099. In the case of TAGTTCTGAG, the switch fluorescence ratio is reported as 0.998 ± 0.006. TAGTTGAGAA showed a switch fluorescence ratio of 0.9851 ± 0.0075. Sequence TAGTTGCTTG has a switch fluorescence ratio of 1.03 ± 0.054. With TAGTTGGCAG the switch fluorescence ratio was 0.9773 ± 0.0054. In the case of TAGTTGGCCC, the switch fluorescence ratio is reported as 1.006 ± 0.0034. With TAGTTGGGAG the switch fluorescence ratio was 0.973 ± 0.012. TAGTTGTAAG showed a switch fluorescence ratio of 0.994 ± 0.02. TAGTTTATGT was tested, and the switch fluorescence ratio was 1.012 ± 0.0056. TAGTTTTAGA was tested, and the switch fluorescence ratio was 0.98478 ± 9.2e-05. TAGTTTTTCA was tested, and the switch fluorescence ratio was 1.01 ± 0.039. With TAGTTTTTGG the switch fluorescence ratio was 0.994 ± 0.032. For TATAAAAGGC, the switch fluorescence ratio was 0.978 ± 0.045. TATAAACTGT was tested, and the switch fluorescence ratio was 0.993 ± 0.015. Sequence TATAAAGAGA has a switch fluorescence ratio of 0.9978 ± 0.0057. For TATAAAGCGG, the switch fluorescence ratio was 1.03 ± 0.048. TATAAAGTTG showed a switch fluorescence ratio of 1.01 ± 0.062. TATAACGGGA gave a switch fluorescence ratio of 1.05 ± 0.027. TATAAGAGTT was tested, and the switch fluorescence ratio was 1.02 ± 0.035. In the case of TATAAGTTTT, the switch fluorescence ratio is reported as 0.9823 ± 0.0096. With TATAATACTT the switch fluorescence ratio was 1.026 ± 0.0038. TATAATGTGG was tested, and the switch fluorescence ratio was 0.967 ± 0.015. With TATAATGTTT the switch fluorescence ratio was 1.02 ± 0.048. In the case of TATAATTGGT, the switch fluorescence ratio is reported as 0.9616 ± 0.007. TATACCATGG was tested, and the switch fluorescence ratio was 0.971 ± 0.046. In the case of TATACCATTA, the switch fluorescence ratio is reported as 0.997 ± 0.051. In the case of TATACCCTTT, the switch fluorescence ratio is reported as 1 ± 0.052. With TATACGACTT the switch fluorescence ratio was 1.03 ± 0.029. Work on TATACGCTTG yielded a switch fluorescence ratio of 1.001 ± 0.0079. TATACGGGGG gave a switch fluorescence ratio of 0.992 ± 0.049. With TATACGTTTC the switch fluorescence ratio was 1.04 ± 0.028. For TATACTGTAA, the switch fluorescence ratio was 1.14 ± 0.031. With TATAGAGGG the switch fluorescence ratio was 0.969 ± 0.011. In the case of TATAGCCGGG, the switch fluorescence ratio is reported as 1 ± 0.069. In the case of TATAGGACTA, the switch fluorescence ratio is reported as 1.01 ± 0.014. TATAGGCTTC showed a switch fluorescence ratio of 1 ± 0.023. TATAGGGTCA showed a switch fluorescence ratio of 0.979 ± 0.031. With TATAGGTCGG the switch fluorescence ratio was 0.9695 ± 0.0057. TATAGGTTTG showed a switch fluorescence ratio of 1.01 ± 0.042. Sequence TATAGTGATG has a switch fluorescence ratio of 1.01 ± 0.019. Sequence TATAGTTTGC has a switch fluorescence ratio of 0.969 ± 0.026. TATATACGTT gave a switch fluorescence ratio of 1.04 ± 0.026. Work on TATATAGGAA yielded a switch fluorescence ratio of 1.018 ± 0.0064. In the case of TATATATAAA, the switch fluorescence ratio is reported as 1.09 ± 0.087. Sequence TATATCATTG has a switch fluorescence ratio of 0.965 ± 0.011. TATATGAATA showed a switch fluorescence ratio of 1.006 ± 0.0023. TATATGAGAG was tested, and the switch fluorescence ratio was 0.973 ± 0.017.

From the supplement of paper PMC10126150
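Also: ATP exposure 15 min at 22 °C before imaging.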
